{"source": "paper PMC10529453", "about": "(Cell reports, 2023)", "binders": {"B1": {"name": "Mec3 (natural protein, S. cerevisiae, UniProt Q02574 1-474, looked up)", "chain": "MKLKLIVNGCEAPDDYKLLRTTINTVASLRKTAILRFNSERLTIISTPKSSLNSSNNGTILRGDTGQLWCTIPHDVFRLYTVISARELNTITMECNCDSLLSVFKRYDRVMNQGSSSNMTIKLQSMPEWNTNNGTLSGGTAGGVDTTSKPNPICALGITFEEIVHTSGPNDAIVMNGGVDEHNGLPTTVGTGNLLASNKVIMHSFKVPVKLLFRAQDTRIQEPMINYIQLMMYKLPPISGEFGSAFHGFIRRVERYSNVNHIHLMGVKKKEHGNEGDDVELKIIVNELDWHLEICWNGPLDSVIQRQEGLTDNPSQNQHIDTDGRQEEGSLPIIEADKPMSSLYTNTRDREMEENIRYDEDLLRIEDSSIADTRGNIYTADTSGDTEFNDISVMVEKAEQESSSTHEVIIRCKDWKVCSKLYAAFEEVVLAISHDESCVFHCSLDRGSLEDSEDVEKPRERGQIIYYIARSKGL"}, "B2": {"name": "10-nt gapped DNA (cryo-EM) (mixed)", "DNA 1": "CGGTATAGGCGATACGAATCTTTTTTTTTTCCGTATAGCCGTAGCGAGCC", "DNA 2": "GGCTCGCTACGGCTATACGG", "DNA 3": "GATTCGTATCGCCTATACCG"}, "B3": {"name": "5-nt gapped DNA (cryo-EM) (mixed)", "DNA 1": "CGGTATAGGCGATACGAATCTTTTTCCGTATAGCCGTAGCGAGCC", "DNA 2": "GGCTCGCTACGGCTATACGG", "DNA 3": "GATTCGTATCGCCTATACCG"}, "B4": {"name": "10-nt gap DNA (loading) (mixed)", "DNA 1": "CGGTATAGGCGATACGAATCTTTTTTTTTTCCGTATAGCCGTAGCGAGCCCGACCATACC", "DNA 2": "GGTATGGTCGGGCTCGCTACGGCTATACGG", "DNA 3": "GATTCGTATCGCCTATACCG", "modifications": "5' phosphate on primer 2"}, "B5": {"name": "Rad17 (natural protein, S. cerevisiae)", "chain": "MRINSELANKFSASTVHLEHITTALSCLTPFGSKDDVLIFIDADGLSFVRENNHVIKIQLLLSRELFMSYSYRNETEDHMKLCVKINHILDSVSVMNRNSDDIVECTLSYDGHGSPFVLIFEDSFISERVEYSTYLIKDFDTNGLELDRERISFEAIIKGEALHSALKDLKEIGCKECYVYAKTEANDENVFALISKSQLGFSKIKLPSNRSILEKLQVFDGDSTTVIDGFAVIGFFDFTSFDKIRKSTKIASKVLFRMDVHGVLSVNILSQTDDVIITDTTRPSNNRPGSIRQLQLPKDYPGIVIEVCMLEKESIDEAAQTEIELLMETNELGNRNSFKKSTIRKRYGTDKGNETSNDNLLQLNGKKIKLPSEEENNKNRESEDEENHCKYPTKDIPIFF"}}, "key": {"Ddc1": {"target": "T1, Ddc1 (S. cerevisiae, UniProt Q08949 1-612)", "T1 sequence": "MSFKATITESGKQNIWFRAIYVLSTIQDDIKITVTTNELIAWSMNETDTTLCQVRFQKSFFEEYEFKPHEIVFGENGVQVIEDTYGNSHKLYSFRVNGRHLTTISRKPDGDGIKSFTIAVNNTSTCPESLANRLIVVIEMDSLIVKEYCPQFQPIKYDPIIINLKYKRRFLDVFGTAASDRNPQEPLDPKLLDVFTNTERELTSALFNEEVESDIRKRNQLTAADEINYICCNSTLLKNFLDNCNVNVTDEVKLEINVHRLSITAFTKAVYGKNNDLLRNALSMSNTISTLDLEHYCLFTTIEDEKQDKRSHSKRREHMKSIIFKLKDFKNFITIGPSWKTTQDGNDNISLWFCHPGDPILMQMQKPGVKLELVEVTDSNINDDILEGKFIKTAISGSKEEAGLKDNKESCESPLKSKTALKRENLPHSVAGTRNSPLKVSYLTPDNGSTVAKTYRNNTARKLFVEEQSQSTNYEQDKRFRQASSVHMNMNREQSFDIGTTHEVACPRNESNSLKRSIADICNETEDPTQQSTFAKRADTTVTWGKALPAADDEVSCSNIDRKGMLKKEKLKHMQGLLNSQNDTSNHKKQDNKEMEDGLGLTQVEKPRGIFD", "assay": "cryo-EM structure"}, "[1]": {"target": "T2, Rad24-RFC clamp loader;9-1-1 checkpoint clamp (Saccharomyces cerevisiae;Saccharomyces …, UniProt P32641;P40339;P38629;P40348;P38251;Q08949;Q02574;P48581 …, |)", "assay": "cryo-EM"}, "[2]": {"target": "T2, Rad24-RFC clamp loader;9-1-1 checkpoint …", "assay": "cryo-EM", "remark": "listed apart in the source"}, "[3]": {"target": "Rad24-RFC clamp loader;32P-9-1-1 checkpoint clamp (Saccharomyces cerevisiae;Saccharomyces …, UniProt P32641;P40339;P38629;P40348;P38251;Q08949;Q02574;P48581 …, |)", "assay": "magnetic bead clamp loading"}, "Mec3": {"target": "B1", "assay": "cryo-EM structure"}}, "note": "Where two headings read alike, the source gives them in different places."}
{"binder": "B1", "values": [{"measurement": "binding result", "setting": "Ddc1", "value": "binds"}]}
{"binder": "B2", "values": [{"measurement": "binding result", "setting": "[1]", "value": "binds"}]}
{"binder": "B3", "values": [{"measurement": "binding result", "setting": "[2]", "value": "binds"}]}
{"binder": "B4", "values": [{"measurement": "binding result", "setting": "[3]", "value": "binds"}]}
{"binder": "B5", "values": [{"measurement": "binding result", "setting": "Mec3", "value": "binds"}]}
